Experiments:
[1] = biological target: cynomolgus monkey CD200R1 on cells (cynomolgus monkey); experiment: flow cytometry, biotinylated antibody on cynomolgus CD8+ T cells (PBMC), streptavidin-PE; concentration not shown
[2] = biological target: cynomolgus monkey CD200R1 on cells (cynomolgus monkey); experiment: flow cytometry, biotinylated antibody on cynomolgus CD4+ T cells (PBMC), streptavidin-PE; concentration not shown
[3] = biological target: human CD200R1 on cells (human) (UniProt Q8TD46); experiment: cell-based or functional assay
[4] = biological target: human CD200R1 on cells (human) (UniProt Q8TD46); experiment: flow cytometry, blocking: U937 cells stably expressing hu-CD200R1 incubated with the antibody, then with 55 nM huCD200-Fc-Flag, detected with anti-Flag PE (MFI)

Sequence of hu-CD200-Fc (Fc fusion) (chain): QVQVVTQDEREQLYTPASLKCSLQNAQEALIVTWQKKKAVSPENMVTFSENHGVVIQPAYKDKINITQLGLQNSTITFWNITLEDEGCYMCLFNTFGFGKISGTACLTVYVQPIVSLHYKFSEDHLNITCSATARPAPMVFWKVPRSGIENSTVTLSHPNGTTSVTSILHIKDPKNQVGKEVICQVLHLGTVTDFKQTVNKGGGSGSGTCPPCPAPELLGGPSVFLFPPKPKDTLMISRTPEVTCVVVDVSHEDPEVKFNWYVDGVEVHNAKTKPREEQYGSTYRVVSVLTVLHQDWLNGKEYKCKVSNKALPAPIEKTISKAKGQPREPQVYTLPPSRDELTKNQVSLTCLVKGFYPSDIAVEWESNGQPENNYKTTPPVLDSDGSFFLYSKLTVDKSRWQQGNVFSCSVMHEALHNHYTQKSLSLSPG

Mean:Comp-FL2-A [1] | Mean:Comp-FL2-A [2] | Substance | pDok2 induction, western blot, U937 cells expressing CD200R1 [3] [µM] | IC50 [4] [nM]
411 | 403 | IgG Control (antibody) |  | 
425 | 566 | OX108 (commercial anti-CD200R1 antibody) | 0.033 | 2.8
 |  | hu-CD200-Fc (Fc fusion) | 0.2 | 
